# Source: article PMC7840181
# Target: CLAG3-tv2 (CLAG3h with C-terminal His10-FLAG-thrombin-TEV-HA-twinstrept-BC2 multi-tag) (Plasmodium falciparum)
# Assay: native MS; endogenous RhopH complex purified via CLAG3-tv2 (FLAG, then Ni-NTA), exchanged into 200 mM ammonium acetate pH 7.5, 0.01% Tween-20; Exactive Plus EMR
substance,measurement,value
RhopH2 (from UniProt C0H571 20-1378) (natural protein),stoichiometry N,1
RhopH3 (from UniProt Q8I395 25-897) (natural protein),stoichiometry N,1
